Consider 19 molecules from patent US20220324953A1 (JIANGSU HENGRUI MEDICINE, published 2022).

Experiment [1] concerns the target T1, Cynomolgus CTGF-Fc (fusion protein of cynomolgus CTGF coding region with Fc) (cynomolgus).
T1 construct: also called cyno-CTGF-mFc protein; cyno-CTGF protein with Fc tag
Kind of experiment: ELISA, cyno-CTGF-Fc captured by anti-mFc. The procedure: The binding activity of anti-monkey CTGF antibody to monkey CTGF protein was tested by ELISA assay. A 96-well microtiter plate was directly coated with anti-mFc protein, and then the cyno-CTGF protein with Fc tag was bound to the plate, and then the antibody was added. The signal strength upon the addition of the antibody was used to determine the binding activity of the antibody to cyno-CTGF. The specific experimental procedures were as follows:
The anti-mFc Protein (Sigma, Cat No. M4280) was diluted with PBS, pH 7.4 (Shanghai Yuanpei, Cat No. B320) buffer to a concentration of 2 μg/ml, which was added into the 96-well microtiter plate (Corning, Cat No. CLS3590-100EA) at 50 μl/well, and incubated in an incubator at 37° C. for 2 hours. The liquid was removed, 250 μl/well blocking solution (5% skim milk (BD skim milk, Cat No.232100) diluted in PBS) was added, and incubated in an incubator at 37° C. for 3 hours or at 4° C. overnight (16-18 hours) for blocking. After the blocking was finished, the blocking solution was removed, the plate was washed for 3 times with PBST buffer (PBS containing 0.1% Tween-20, pH 7.4), 50 μl of 1 μg/ml cyno-CTGF-mFc protein was added into each well, incubated in an incubator at 37° C. for 1 hour, and then the plate was washed for 3 times with PBST buffer (PBS containing 0.1% Tween-20, pH 7.4). 50 μl/well of various concentrations of each of the test antibodies (antibodies purified from hybridoma or humanized antibodies) diluted with sample dilution solution were added, and incubated in an incubator at 37° C. for 1 hours. After the incubation was finished, the plate was washed for 3 times with PBST, 50 μl/well of HRP-labeled goat anti-mouse secondary antibody (Jackson Immuno Research, Cat No. 115-035-003) or goat anti-human secondary antibody (Jackson Immuno Research, Cat No. 109-035-003) diluted with sample dilution solution was added, and incubated at 37° C. for 1 hour. The plate was washed for 5 times with PBST, 50 μl/well of TMB chromogenic substrate (KPL, Cat No. 52-00-03) was added, incubated at room temperature for 5-10 min, and 50 μl/well of 1 M H₂SO₄ was added to stop the reaction. The absorbance value was read by a microplate reader (Molecular Devices, VERSA max) at a wavelength of 450 nm, and the data was analyzed with GraphPad Prism 5. The binding of CTGF antibody to cyno CTGF protein was calculated as EC50 value.

Experiment [2] deals with T2, mouse CTGF (antigen of the Biacore assay) (mouse, UniProt P29268 26-348).
T2 construct: also called mouse CTGF protein
T2 sequence (looked up): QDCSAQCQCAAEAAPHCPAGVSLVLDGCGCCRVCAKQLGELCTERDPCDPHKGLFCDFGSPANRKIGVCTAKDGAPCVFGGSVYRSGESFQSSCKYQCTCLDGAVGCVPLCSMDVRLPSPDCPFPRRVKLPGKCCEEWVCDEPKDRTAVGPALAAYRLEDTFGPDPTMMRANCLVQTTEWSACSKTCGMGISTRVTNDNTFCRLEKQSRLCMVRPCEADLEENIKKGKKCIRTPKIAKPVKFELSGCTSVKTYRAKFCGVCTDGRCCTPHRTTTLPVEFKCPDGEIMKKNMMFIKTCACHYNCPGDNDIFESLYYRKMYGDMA
The experiment in a line: Biacore, antibody captured on Protein A, mouse CTGF in flow, 1:1 fit. From the text:
A certain amount of each of the test antibodies was affinity-captured with Protein A biosensor chip (Cat. # 29127556, GE), and then a certain concentration of human or mouse CTGF was allowed to flow through the surface of the chip. The reaction signals were detected in real time with Biacore instrument to generate a binding and dissociation curve. After the dissociation was completed in each cycle, the biosensor chip was washed and regenerated with Glycine-HCl regeneration solution pH 1.5 (Cat. # BR-1003-54, GE). The running buffer for the assay was 1×HBS-EP buffer solution (Cat. # BR-1001-88, GE).

Usually EC50 stands for the concentration that produces a half-maximal response. What is called Kd is the concentration at which binding is half-saturated. The low end stands for tighter binding, the high end for weaker binding. The koff is the rate constant with which the complex falls apart. Low readings indicate a long-lived complex, high ones a short-lived complex. In general, kon refers to the second-order rate constant of association. Low readings indicate slow association, high ones fast association.

Positions count from the first letter of the chain named.

T1 sequence (chain, as listed by the source limits assumed): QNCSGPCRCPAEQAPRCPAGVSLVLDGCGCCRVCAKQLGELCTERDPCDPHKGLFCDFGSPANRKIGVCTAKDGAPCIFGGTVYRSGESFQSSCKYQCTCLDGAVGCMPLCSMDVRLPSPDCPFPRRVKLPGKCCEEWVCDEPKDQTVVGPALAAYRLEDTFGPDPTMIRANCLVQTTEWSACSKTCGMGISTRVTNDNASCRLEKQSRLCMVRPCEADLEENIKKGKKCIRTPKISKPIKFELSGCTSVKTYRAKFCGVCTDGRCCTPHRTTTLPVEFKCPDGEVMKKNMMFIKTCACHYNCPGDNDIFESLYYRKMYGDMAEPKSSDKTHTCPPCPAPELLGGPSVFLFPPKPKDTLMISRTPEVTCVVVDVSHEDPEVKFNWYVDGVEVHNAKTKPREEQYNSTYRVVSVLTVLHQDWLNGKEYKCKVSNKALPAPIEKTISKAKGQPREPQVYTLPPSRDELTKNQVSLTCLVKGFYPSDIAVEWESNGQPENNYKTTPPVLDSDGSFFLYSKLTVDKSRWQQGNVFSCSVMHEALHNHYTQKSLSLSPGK

B1: positive control CTGF antibody mAb1 (antibody, V domains shown)
VH: EGQLVQSGGGLVHPGGSLRLSCAGSGFTFSSYGMHWVRQAPGKGLEWVSGIGTGGGTYSTDSVKGRFTISRDNAKNSLYLQMNSLRAEDMAVYYCARGDYYGSGSFFDCWGQGTLVTVSS
VL: DIQMTQSPSSLSASVGDRVTITCRASQGISSWLAWYQQKPEKAPKSLIYAASSLQSGVPSRFSGSGSGTDFTLTISSLQPEDFATYYCQQYNSYPPTFGQGTKLEIKR
notes: Positive control, from CN1829740B; also called pamrevlumab; FG-3019
For the molecule B1, in experiment [1], the EC50 is 0.086 nM.

B2: Hu147-22wk (antibody, human IgG1, kappa, V domains shown)
VH: EVQLVESGGGLVQPGGSLRLSCAASGFTFNTYAMNWVRQAPGKGLEWVARIRTKSNNYATYYADSVKDRFTISRDDSKNSLYLQMNSLKTEDTAVYYCVETGFAYWDQGTLVTVSS
VL: EIVLTQSPATLSLSPGERATLSCSASSSVSYMHWFQQKPGQSPKLLIYSTSNLASGIPARFSGSGSGTDYTLTISSLEPEDFAVYYCQQRSSYPLTFGQGTKLEIKR
B2 displayed an EC50 in experiment [1] of 0.073 nM.

B3: Hu147-14wk (antibody, human IgG1, kappa, V domains shown)
VH: B2 VH with N30S, A49G
VL: DIQMTQSPSSLSASVGDRVTITCSASSSVSYMHWFQQKPGKSPKLLIYSTSNLASGVPSRFSGSGSGTDYTLTISSLQPEDFATYYCQQRSSYPLTFGQGTKLEIKR
For B3, in experiment [1], the EC50 came to 0.077 nM. This EC50 and that of the molecule before are within 1.5-fold of each other.

B4: Hu147-12wk (antibody, human IgG1, kappa, V domains shown)
VH: B2 VH with N30S, A49G
VL: B2 VL
In experiment [1], B4 showed a half-maximal effective concentration (EC50) of 0.062 nM. Moreover, in experiment [2], binding was put at a Kd of 3.09 nM, the koff is 0.116 s⁻¹ and the on-rate constant (kon) was found to be 3.75e+07 M⁻¹ s⁻¹.

B5: Hu147-31wk (antibody, human IgG1, kappa, V domains shown)
VH: B2 VH with T28S, K78E, N79S
VL: B2 VL with K44R
With B5, a half-maximal effect in experiment [1] (EC50) was put at 0.07 nM. Also, in experiment [2], binding was characterised by a dissociation constant (Kd) of 2.79 nM, the off-rate (koff) is 0.107 s⁻¹ and the association rate constant (kon) worked out at 3.83e+07 M⁻¹ s⁻¹.

B6: Hu147-11wk (antibody, human IgG1, kappa, V domains shown)
VH: B2 VH with N30S, A49G
VL: B2 VL with K44R
In experiment [1], B6 had a concentration giving a half-maximal response (EC50) of 0.052 nM. In experiment [2], this molecule had a dissociation constant (Kd) of 3.11 nM, a koff of 0.374 s⁻¹ and a kon of 1.2e+08 M⁻¹ s⁻¹.

B7: Hu147-34wk (antibody, human IgG1, kappa, V domains shown)
VH: B2 VH with T28S, K78E, N79S
VL: B3 VL
In experiment [1], B7 returned an EC50 of 0.144 nM.

B8: Hu147-33wk (antibody, human IgG1, kappa, V domains shown)
VH: B2 VH with T28S, K78E, N79S
VL: B2 VL with L46W, I57V
Regarding B8, the 50% effective concentration (EC50) in experiment [1] was 0.044 nM. Further, in experiment [2], the Kd stood at 1.93 nM, the off-rate (koff) was 0.174 s⁻¹ and the kon is 9.01e+07 M⁻¹ s⁻¹.

B9: Hu147-15wk (antibody, human IgG1, kappa, V domains shown)
VH: B2 VH with N30S, A49G
VL: B3 VL with M4L, L46W
Regarding B9, in experiment [1], a half-maximal effect (EC50) was put at 0.053 nM.

B10: Hu147-13wk (antibody, human IgG1, kappa, V domains shown)
VH: B2 VH with N30S, A49G
VL: B2 VL with L46W, I57V
B10 came in with an EC50 in experiment [1] of 0.043 nM. In experiment [2], this molecule gave a dissociation constant Kd of 2.55 nM, a koff of 0.146 s⁻¹ and a kon of 5.73e+07 M⁻¹ s⁻¹.

B11: Hu147-21wk (antibody, human IgG1, kappa, V domains shown)
VH: B2 VH
VL: B2 VL with K44R
In experiment [1], B11 yielded a concentration for a half-maximal effect (EC50) of 0.053 nM.

B12: Hu147-32wk (antibody, human IgG1, kappa, V domains shown)
VH: B2 VH with T28S, K78E, N79S
VL: B2 VL
In experiment [1], B12 yielded a concentration giving a half-maximal response (EC50) of 0.079 nM. In experiment [2], this molecule had a Kd of 2.49 nM, an off-rate (koff) of 0.343 s⁻¹ and a kon of 1.37e+08 M⁻¹ s⁻¹.

B13: Hu147-23wk (antibody, human IgG1, kappa, V domains shown)
VH: B2 VH
VL: B2 VL with L46W, I57V
As for B13, the concentration for a half-maximal effect (EC50) in experiment [1] stood at 0.063 nM. Also, in experiment [2], the equilibrium dissociation constant (Kd) came to 2.12 nM, the off-rate (koff) was 0.173 s⁻¹ and the kon was found to be 8.18e+07 M⁻¹ s⁻¹.

B14: Hu147-24wk (antibody, human IgG1, kappa, V domains shown)
VH: B2 VH
VL: B3 VL
As to B14, the EC50 in experiment [1] worked out at 0.08 nM.

B15: Hu164-68wl (antibody, human IgG1, lambda, V domains shown)
VH: EVTLKESGPVLVKPTETLTLTCTVSGFSLSTFGVHWIRQPPGKGLEWLGVIWRRGGTDYNAAFMSRLTISKDTSKSQVVFTMTNMDPVDTATYYCARDGGFDYWGQGTTVTVSS
VL: ETVVTQEPSFSVSPGGTVTLTCRSSIGAVTTSNYANWVQQTPGQAFRGLIGGTSNRAPGVPDRFSGSILGNKAALTITGAQADDESDYYCALWYSTHYVFGGGTKLTVLG
Take B15: in experiment [1], the midpoint of the response, the EC50, lay at 0.036 nM. In experiment [2], this molecule had a Kd of 0.133 nM, a koff of 0.0076 s⁻¹ and an on-rate (kon) of 5.7e+07 M⁻¹ s⁻¹.

B16: Hu164-69wl (antibody, human IgG1, lambda, V domains shown)
VH: B15 VH
VL: ESVVTQPPSVSGAPGQRVTISCRSSIGAVTTSNYANWVQQLPGTAFKGLIGGTSNRAPGVPDRFSGSKSGTSASLAITGLQAEDEADYYCALWYSTHYVFGGGTKLTVLG
B16 yielded an EC50 in experiment [1] of 0.032 nM. For the same molecule, in experiment [2], the affinity, expressed as Kd, was 0.126 nM; the koff stood at 0.00774 s⁻¹; the kon is 6.17e+07 M⁻¹ s⁻¹.

B17: Hu164-67wl (antibody, human IgG1, lambda)
heavy: not shown
light: ETVVTQEPSLTVSPGGTVTLTCRSSIGAVTTSNYANWVQQKPGQAFRGLIGGTSNRAPWTPARFSGSLLGGKAALTLSGVQPEDEAEYYCALWYSTHYVFGGGTKLTVLGQPKANPTVTLFPPSSEELQANKATLVCLISDFYPGAVTVAWKADGSPVKAGVETTKPSKQSNNKYAASSYLSLTPEQWKSHRSYSCQVTHEGSTVEKTVAPTEC
In experiment [1], B17 gave an EC50 of 0.028 nM. In experiment [2], this molecule came in with a Kd of 0.0184 nM, an off-rate (koff) of 0.00117 s⁻¹ and a kon of 6.36e+07 M⁻¹ s⁻¹.

B18: Hu164-77wl (antibody, human IgG1, lambda, V domains shown)
VH: EVQLQESGPGLVKPSQTLSLTCTVSGFSISTFGVHWIRQHPGKGLEWIGVIWRRGGTDYNAAFMSRVTISKDTSKNQVSLKLSSVTAADTAVYYCARDGGFDYWGQGTTVTVSS
VL: ETVVTQEPSLTVSPGGTVTLTCRSSIGAVTTSNYANWVQQKPGQAFRGLIGGTSNRAPWTPARFSGSLLGGKAALTLSGVQPEDEAEYYCALWYSTHYVFGGGTKLTVLG
As to B18, the midpoint of the response in experiment [1], the EC50, lay at 0.038 nM. In experiment [2], this molecule registered a Kd of 0.148 nM, an off-rate (koff) of 0.00883 s⁻¹ and a kon of 5.98e+07 M⁻¹ s⁻¹.

B19: Hu164-87wl (antibody, human IgG1, lambda, V domains shown)
VH: B18 VH with I48L, V67L, L80F
VL: B18 VL
In experiment [1], B19 gave an EC50 of 0.034 nM. In experiment [2], binding was characterised by a dissociation constant (Kd) of 0.084 nM, the off-rate (koff) was 0.0044 s⁻¹ and the association rate constant (kon) worked out at 5.24e+07 M⁻¹ s⁻¹.
